Assay results: patent US20230194547A1

Target: human FcRn beta-2-microglobulin complex, biotinylated, coupled to streptavidin Sepharose (human) (UniProt P55899)
Experiment: FcRn affinity chromatography, pH gradient 5.5 to 8.8; unlabelled antibody

Chain of Avelumab (antibody) (HC): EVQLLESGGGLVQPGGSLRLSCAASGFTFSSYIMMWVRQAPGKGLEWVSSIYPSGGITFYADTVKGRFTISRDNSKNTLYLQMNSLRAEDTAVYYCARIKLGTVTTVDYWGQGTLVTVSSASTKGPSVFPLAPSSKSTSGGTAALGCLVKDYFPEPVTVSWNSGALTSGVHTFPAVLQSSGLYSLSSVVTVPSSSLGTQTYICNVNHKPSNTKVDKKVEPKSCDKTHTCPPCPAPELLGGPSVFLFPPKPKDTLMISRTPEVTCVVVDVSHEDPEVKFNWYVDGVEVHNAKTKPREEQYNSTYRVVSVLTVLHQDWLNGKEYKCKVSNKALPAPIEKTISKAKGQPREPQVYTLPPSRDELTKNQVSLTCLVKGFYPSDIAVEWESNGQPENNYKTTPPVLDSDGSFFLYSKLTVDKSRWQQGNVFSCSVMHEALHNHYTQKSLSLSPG
Chain of Avelumab (antibody) (LC): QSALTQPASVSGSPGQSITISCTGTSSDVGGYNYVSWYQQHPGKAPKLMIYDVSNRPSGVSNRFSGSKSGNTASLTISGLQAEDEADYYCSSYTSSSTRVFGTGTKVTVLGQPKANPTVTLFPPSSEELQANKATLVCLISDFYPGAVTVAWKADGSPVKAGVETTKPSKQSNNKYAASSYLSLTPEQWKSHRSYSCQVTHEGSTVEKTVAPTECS
Chain of Ustekinumab (antibody) (HC): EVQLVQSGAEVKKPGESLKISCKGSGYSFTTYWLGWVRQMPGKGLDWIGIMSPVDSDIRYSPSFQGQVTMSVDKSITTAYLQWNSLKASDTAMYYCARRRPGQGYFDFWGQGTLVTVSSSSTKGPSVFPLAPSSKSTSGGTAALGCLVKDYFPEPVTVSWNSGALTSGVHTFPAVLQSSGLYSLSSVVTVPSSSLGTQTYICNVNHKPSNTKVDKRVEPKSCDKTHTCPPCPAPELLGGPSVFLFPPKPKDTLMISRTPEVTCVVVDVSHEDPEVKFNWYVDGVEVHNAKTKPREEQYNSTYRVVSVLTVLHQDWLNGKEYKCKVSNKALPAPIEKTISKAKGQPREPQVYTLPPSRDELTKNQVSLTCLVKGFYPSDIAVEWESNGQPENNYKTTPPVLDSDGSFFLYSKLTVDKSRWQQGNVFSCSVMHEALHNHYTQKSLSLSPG
Chain of Ustekinumab (antibody) (LC): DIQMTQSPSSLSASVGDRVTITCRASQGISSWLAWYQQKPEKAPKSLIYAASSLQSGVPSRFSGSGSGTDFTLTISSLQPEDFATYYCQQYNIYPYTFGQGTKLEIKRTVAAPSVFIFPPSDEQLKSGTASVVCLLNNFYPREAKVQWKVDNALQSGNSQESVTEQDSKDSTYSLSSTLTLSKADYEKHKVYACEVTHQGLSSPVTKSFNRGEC
Chain of Ixekizumab, labelled with pHAb dye (antibody) (HC): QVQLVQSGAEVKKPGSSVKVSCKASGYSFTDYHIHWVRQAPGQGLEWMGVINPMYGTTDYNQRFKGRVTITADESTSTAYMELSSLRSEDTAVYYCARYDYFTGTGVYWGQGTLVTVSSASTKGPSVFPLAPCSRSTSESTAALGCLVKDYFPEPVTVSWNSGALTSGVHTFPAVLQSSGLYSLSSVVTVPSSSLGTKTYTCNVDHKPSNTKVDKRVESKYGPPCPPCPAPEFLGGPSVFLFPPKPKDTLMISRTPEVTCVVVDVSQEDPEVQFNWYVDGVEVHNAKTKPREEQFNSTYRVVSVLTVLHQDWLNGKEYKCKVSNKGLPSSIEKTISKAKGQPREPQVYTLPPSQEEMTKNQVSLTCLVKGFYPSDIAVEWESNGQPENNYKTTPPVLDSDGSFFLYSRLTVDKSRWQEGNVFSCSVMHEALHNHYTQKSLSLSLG
Chain of Ixekizumab, labelled with pHAb dye (antibody) (LC): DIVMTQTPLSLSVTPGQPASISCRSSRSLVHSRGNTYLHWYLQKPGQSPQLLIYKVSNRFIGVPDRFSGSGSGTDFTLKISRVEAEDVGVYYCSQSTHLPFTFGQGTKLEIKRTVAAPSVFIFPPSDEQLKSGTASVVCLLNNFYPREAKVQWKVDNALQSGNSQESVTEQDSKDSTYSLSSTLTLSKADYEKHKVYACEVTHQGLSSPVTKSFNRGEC

| relative retention time on FcRn affinity column (relative to anti-Her3 antibody standard) | Substance |
| --- | --- |
| 0.93 | Adalimumab (antibody) |
| 1.27 | Avelumab (antibody) |
| 0.5 | Motavizumab WT (antibody) |
| 4.52 | Motavizumab-YTE (antibody) |
| 0.49 | Nivolumab (antibody) |
| 0.72 | Ofatumumab (antibody) |
| 0.31 | Palivizumab (antibody) |
| 0.5 | Reslizumab (antibody) |
| 0.48 | Ustekinumab (antibody) |

Target: human FcRn beta-2-microglobulin complex, biotinylated, coupled to streptavidin Sepharose (human) (UniProt P55899)
Experiment: FcRn affinity chromatography, pH gradient 5.5 to 8.8; dye-labelled antibody

| relative retention time on FcRn affinity column (relative to anti-Her3 antibody standard) | Substance |
| --- | --- |
| 0.84 | Adalimumab, labelled with pHAb dye (antibody) |
| 1.25 | Avelumab, labelled with pHAb dye (antibody) |
| 1.33 | Ixekizumab, labelled with pHAb dye (antibody) |
| 0.42 | Motavizumab WT, labelled with pHAb dye (antibody) |
| 4.88 | Motavizumab-YTE, labelled with pHAb dye (antibody) |
| 0.39 | Nivolumab, labelled with pHAb dye (antibody) |
| 0.67 | Ofatumumab, labelled with pHAb dye (antibody) |
| 0.28 | Palivizumab, labelled with pHAb dye (antibody) |
| 0.41 | Reslizumab, labelled with pHAb dye (antibody) |
| 0.41 | Ustekinumab, labelled with pHAb dye (antibody) |
